Each block holds one binder with its values, some of them ahead of it.
Key:
Test in all cases: two-hybrid library CCmax;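 further: natural log of median RNA to DNA barcode read ratio; higher means stronger binding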
[1] = molecular target: T1, 4H481-AA; conditions: mean of both orientations
T1 chain: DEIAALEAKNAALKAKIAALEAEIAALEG

[2] = molecular target: T2, 4H369-AA
T2 chain: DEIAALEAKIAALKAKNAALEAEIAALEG

[3] = molecular target: T3, 4H662-AA; conditions: mean of both orientations
T3 chain: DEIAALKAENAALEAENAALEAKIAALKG

[4] = molecular target: T4, 4H3922-AA; conditions: mean of both orientations
T4 chain: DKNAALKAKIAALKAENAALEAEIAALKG

[5] = molecular target: T5, 4H4033-AA; conditions: mean of both orientations
T5 chain: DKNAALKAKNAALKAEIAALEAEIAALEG

[6] = molecular target: T6, 4H55-AA; conditions: mean of both orientations
T6 chain: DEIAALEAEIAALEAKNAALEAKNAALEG

[7] = molecular target: T7, 4H775-AA; conditions: mean of both orientations
T7 chain: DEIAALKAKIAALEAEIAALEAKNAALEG

[8] = molecular target: T8, 4H87-AA; conditions: mean of both orientations
T8 chain: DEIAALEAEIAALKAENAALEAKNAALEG

[9] = molecular target: T9, 4H510-AA; conditions: mean of both orientations
T9 chain: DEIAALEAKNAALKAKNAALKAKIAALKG

[10] = molecular target: T10, 4H816-AA; conditions: mean of both orientations
T10 chain: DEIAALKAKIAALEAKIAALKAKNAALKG

[11] = molecular target: T11, 4H390-AA
T11 chain: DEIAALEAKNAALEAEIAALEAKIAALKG

[12] = molecular target: T12, 4H3940-AA; conditions: mean of both orientations
T12 chain: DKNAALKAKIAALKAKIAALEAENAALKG

[13] = molecular target: T13, 4H2865-AA; conditions: mean of both orientations
T13 chain: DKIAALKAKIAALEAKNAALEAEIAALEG

[14] = molecular target: T14, 4H3753-AA; conditions: mean of both orientations
T14 chain: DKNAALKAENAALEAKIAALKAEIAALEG

[15] = molecular target: T15, 4H2438-AA
T15 chain: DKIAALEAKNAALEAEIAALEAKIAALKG

[16] = molecular target: T16, 4H485-AA; conditions: mean of both orientations
T16 chain: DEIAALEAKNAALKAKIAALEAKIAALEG

[17] = molecular target: T17, 4H3016-AA; conditions: mean of both orientations
T17 chain: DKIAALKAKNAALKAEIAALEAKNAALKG

[18] = molecular target: T18, 4H3009-AA; conditions: mean of both orientations
T18 chain: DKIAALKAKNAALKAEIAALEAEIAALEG

[19] = molecular target: T19, 4H570-AA; conditions: mean of both orientations
T19 chain: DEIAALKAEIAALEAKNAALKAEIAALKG

[20] = molecular target: T20, 4H310-AA; conditions: mean of both orientations
T20 chain: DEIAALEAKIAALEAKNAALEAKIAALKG

[21] = molecular target: T21, 4H2473-AA; conditions: mean of both orientations
T21 chain: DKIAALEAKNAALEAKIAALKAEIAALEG

[22] = molecular target: T22, 4H3697-AA; conditions: mean of both orientations
T22 chain: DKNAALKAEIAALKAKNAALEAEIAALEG

[23] = molecular target: T23, 4H710-AA
T23 chain: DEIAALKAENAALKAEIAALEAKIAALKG

[24] = molecular target: T24, 4H3381-AA; conditions: mean of both orientations
T24 chain: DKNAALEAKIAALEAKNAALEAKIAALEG

[25] = molecular target: T25, 4H3590-AA; conditions: mean of both orientations
T25 chain: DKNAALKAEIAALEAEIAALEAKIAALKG

[26] = molecular target: T26, 4H3120-AA; conditions: mean of both orientations
T26 chain: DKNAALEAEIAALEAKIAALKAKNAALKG

[27] = molecular target: T27, 4H629-AA; conditions: mean of both orientations
T27 chain: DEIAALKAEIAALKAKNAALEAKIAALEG

[28] = molecular target: T28, 4H909-AA; conditions: mean of both orientations
T28 chain: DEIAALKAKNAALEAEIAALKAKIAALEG

[29] = molecular target: T29, 4H891-AA; conditions: mean of both orientations
T29 chain: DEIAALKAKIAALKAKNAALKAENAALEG

[30] = molecular target: T30, 4H745-AA; conditions: mean of both orientations
T30 chain: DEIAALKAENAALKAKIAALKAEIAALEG

[31] = molecular target: T31, 4H94-AA; conditions: mean of both orientations
T31 chain: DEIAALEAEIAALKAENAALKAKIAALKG

[32] = molecular target: T32, 4H797-AA; conditions: mean of both orientations
T32 chain: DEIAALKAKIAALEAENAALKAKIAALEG

[33] = molecular target: T33, 4H3865-AA; conditions: mean of both orientations
T33 chain: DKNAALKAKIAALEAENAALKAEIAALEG

[34] = molecular target: T34, 4H2725-AA; conditions: mean of both orientations
T34 chain: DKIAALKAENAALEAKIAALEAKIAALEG

[35] = molecular target: T35, 4H536-AA; conditions: mean of both orientations
T35 chain: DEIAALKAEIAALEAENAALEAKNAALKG

[36] = molecular target: T36, 4H458-AA; conditions: mean of both orientations
T36 chain: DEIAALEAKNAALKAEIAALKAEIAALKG

[37] = molecular target: T37, 4H930-AA; conditions: mean of both orientations
T37 chain: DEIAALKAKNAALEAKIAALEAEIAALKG

[38] = molecular target: T38, 4H850-AA; conditions: mean of both orientations
T38 chain: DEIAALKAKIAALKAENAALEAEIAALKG

[39] = molecular target: T39, 4H2698-AA; conditions: mean of both orientations
T39 chain: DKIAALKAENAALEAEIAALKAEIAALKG

[40] = molecular target: T40, 4H3395-AA; conditions: mean of both orientations
T40 chain: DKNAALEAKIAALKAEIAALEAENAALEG

[41] = molecular target: T41, 4H2649-AA; conditions: mean of both orientations
T41 chain: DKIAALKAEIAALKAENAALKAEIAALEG

[42] = molecular target: T42, 4H3130-AA; conditions: mean of both orientations
T42 chain: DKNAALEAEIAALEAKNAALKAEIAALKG

[43] = molecular target: T43, 4H3410-AA; conditions: mean of both orientations
T43 chain: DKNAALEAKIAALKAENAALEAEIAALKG

[44] = molecular target: T44, 4H3165-AA; conditions: mean of both orientations
T44 chain: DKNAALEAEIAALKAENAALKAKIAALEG

interaction score [1]: -0.912
interaction score [2]: -0.526
interaction score [3]: 1.3
interaction score [4]: 0.000191
interaction score [5]: -0.678
interaction score [6]: -0.33
B1: 4H369-AA (peptide)
chain: DEIAALEAKIAALKAKNAALEAEIAALEG

interaction score [7]: -0.316
interaction score [8]: -1.41
interaction score [9]: 1.57
interaction score [10]: 0.183
interaction score [11]: 2.23
interaction score [12]: -0.115
B2: 4H390-AA (peptide)
chain: DEIAALEAKNAALEAEIAALEAKIAALKG

interaction score [13]: -0.236
interaction score [14]: 1.89
interaction score [15]: 1.62
interaction score [16]: 2.05
interaction score [17]: -0.613
interaction score [18]: 1.88
interaction score [19]: 0.233
interaction score [20]: -0.376
interaction score [21]: 1.99
interaction score [22]: -1.23
interaction score [23]: -0.823
interaction score [24]: -1.06
interaction score [25]: -0.136
interaction score [26]: -0.892
interaction score [27]: -1.42
interaction score [28]: 0.42
interaction score [29]: -1.67
interaction score [30]: 1.6
interaction score [31]: 1.28
interaction score [32]: -1.67
interaction score [33]: -1.16
interaction score [34]: 1.32
interaction score [35]: -1.47
interaction score [36]: 2.03
interaction score [37]: 0.452
interaction score [38]: 0.962
interaction score [39]: 1.25
interaction score [40]: 0.314
interaction score [41]: -0.664
interaction score [42]: -0.561
interaction score [43]: 0.0321
interaction score [44]: -1.17
B3: 4H2438-AA (peptide)
chain: DKIAALEAKNAALEAEIAALEAKIAALKG

Reference: PMC10397247
